What was measured:
[1] = target: T1, T330M variant 312-340 peptide (SLC34A p312-340 T330M) (human); experiment: dot blot
T1 construct: also called T330M P312-340 peptide
T1 peptide: SPSLCWMDGIQNWTM
Description: Corut et al have studied and identified mutations in SLC34A2 that are predicted to cause pulmonary alveolar microlithiasis and are possibly also associated with testicular microlithiasis (Corut, A. et al (2006) AM J. Hum Genet. 79:650-656). While analyzing normal controls, Corut identified a novel variant c.989C-T (p. T330M), whereby threonine is replaced with methionine, substituting a polar residue with a non-polar residue. This is presumed to inactivate the SLC34A2 protein. This T330M mutation is located within the MX35 epitope peptide region of SLC34A2. […] While MX35, L2 and L3 antibodies bind p312-340 peptide SEQ ID NO: 8, none of these antibodies bind T330M P312-340 peptide by dot blot analysis.

[2] = target: T2, synthetic 29mer peptide representing amino acids 312-340 of the NaPi2b protein (human); experiment: peptide ELISA and dot blot
T2 construct: no end modifications stated
T2 peptide: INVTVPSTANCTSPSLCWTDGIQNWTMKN

[3] = target: T3, GST/NaPi2b-4L fusion protein (311-340aa) (human, UniProt O95436 311-340); experiment: Western blot of truncated GST fusion proteins
T3 construct: Expressed in E. coli; not shown: glutathione S-transferase (GST) tag of vector pGEX4T1
T3 chain (looked up): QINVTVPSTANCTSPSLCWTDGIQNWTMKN

[4] = target: T4, NaPi2b 312-340 array peptide with Ala at 328, Ac-INVTVPSTANCTSPSLAWTDGIQNWTMKN-amide (human, N-terminal acetyl (Ac-), C-terminal amide); experiment: synthetic peptide membrane array, 1 ug/ml antibody
T4 peptide: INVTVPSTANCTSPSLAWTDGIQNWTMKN
Protocol: (§1) For epitope mapping, membranes were incubated for 3 hours with 1 ug/ml primary antibody, followed by incubation with HRP-labeled goat anti-mouse polyclonal antibodies (Jackson ImmunoResearch Laboratories, West Grove, Pa.) for 2 hours. Bound antibody was visualized by chemiluminescence (Western Lightning Plus). For epitope mapping under reducing condition, membranes were incubated in 1 mM DTT for 1 hour at room temperature, and then washed extensively prior to antibody incubation.

[5] = target: T5, NaPi2b 312-340 array peptide with Ala at 322 and 328, Ac-INVTVPSTANATSPSLAWTDGIQNWTMKN-amide (human, N-terminal acetyl (Ac-), C-terminal amide); experiment: synthetic peptide membrane array, 1 ug/ml antibody
T5 peptide: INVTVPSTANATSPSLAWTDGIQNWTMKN
Protocol: as §1

[6] = target: T6, NaPi2b 317-340 array peptide Ac-PSTANCTSPSLCWTDGIQNWTMKN-amide (human, N-terminal acetyl (Ac-), C-terminal amide); experiment: synthetic peptide membrane array, 1 ug/ml antibody
T6 peptide: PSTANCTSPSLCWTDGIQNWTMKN
Protocol: as §1

[7] = target: T7, NaPi2b 320-340 array peptide Ac-ANCTSPSLCWTDGIQNWTMKN-amide (human, N-terminal acetyl (Ac-), C-terminal amide); experiment: synthetic peptide membrane array, 1 ug/ml antibody
T7 peptide: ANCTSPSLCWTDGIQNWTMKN
Protocol: as §1

[8] = target: T8, NaPi2b 323-340 array peptide Ac-TSPSLCWTDGIQNWTMKN-amide (human); experiment: synthetic peptide membrane array, 1 ug/ml antibody
T8 peptide: Ac-TSPSLCWTDGIQNWTMKN-NH2
Protocol: as §1

[9] = target: T9, NaPi2b 324-338 array peptide Ac-SPSLCWTDGIQNWTM-amide (human); experiment: synthetic peptide membrane array, 1 ug/ml antibody
T9 peptide: Ac-SPSLCWTDGIQNWTM-NH2
Protocol: as §1

[10] = target: T10, NaPi2b 312-340 array peptide Ac-INVTVPSTANCTSPSLCWTDGIQNWTMKN-amide (human, N-terminal acetyl (Ac-), C-terminal amide); experiment: synthetic peptide membrane array, 1 ug/ml antibody
T10 peptide: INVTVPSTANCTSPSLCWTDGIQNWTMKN
Protocol: as §1

[11] = target: T11, NaPi2b 312-340 array peptide with Ala at 322, Ac-INVTVPSTANATSPSLCWTDGIQNWTMKN-amide (human, N-terminal acetyl (Ac-), C-terminal amide); experiment: synthetic peptide membrane array, 1 ug/ml antibody
T11 peptide: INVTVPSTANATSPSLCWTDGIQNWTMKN
Protocol: as §1

[12] = target: T12, sodium-dependent phosphate transport protein 2b (NaPi2b, SLC34A2), human, endogenous (human, UniProt O95436 1-690); experiment: mixed hemadsorption assay (MHA) on SK-RC-33 renal cancer cells
T12 construct: whole, on cells; Naturally expressed, N-glycosylated membrane protein of human cancer cell lines (OVCAR-3, SK-RC-18 and others) and tissues; used on intact cells (MHA, flow cytometry), in cell or tissue lysates (Western blot, immunoprecipitation) and in tissue sections; also called MX35 antigen; NaPi2b/MX35
T12 sequence (looked up): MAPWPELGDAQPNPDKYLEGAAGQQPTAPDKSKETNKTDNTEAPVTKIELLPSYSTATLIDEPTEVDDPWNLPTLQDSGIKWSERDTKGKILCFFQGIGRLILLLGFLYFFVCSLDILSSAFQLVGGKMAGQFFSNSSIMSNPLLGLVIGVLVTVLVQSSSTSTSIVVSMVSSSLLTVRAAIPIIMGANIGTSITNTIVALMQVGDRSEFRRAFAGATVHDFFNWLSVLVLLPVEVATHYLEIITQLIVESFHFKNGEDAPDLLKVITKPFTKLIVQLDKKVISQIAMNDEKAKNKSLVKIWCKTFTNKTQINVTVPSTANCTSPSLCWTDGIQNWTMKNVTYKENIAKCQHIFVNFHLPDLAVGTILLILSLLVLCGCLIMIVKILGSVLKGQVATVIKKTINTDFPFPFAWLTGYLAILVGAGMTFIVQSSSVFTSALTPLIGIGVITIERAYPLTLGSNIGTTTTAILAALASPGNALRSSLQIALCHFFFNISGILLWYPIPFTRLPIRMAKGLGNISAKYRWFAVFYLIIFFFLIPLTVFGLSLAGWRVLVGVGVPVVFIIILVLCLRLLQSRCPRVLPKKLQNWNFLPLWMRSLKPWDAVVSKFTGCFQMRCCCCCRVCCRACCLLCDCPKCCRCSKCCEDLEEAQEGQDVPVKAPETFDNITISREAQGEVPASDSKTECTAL
Description: A panel of cancer cell lines was co-typed for SLC34A2 mRNA expression by RT-PCR and for cell surface expression of MX35 protein antigen in a mixed hemadsorption assay (MHA) using mAb MX35 as probe. In addition, cell lysates were probed by Western blot analysis for MX35 expression. A panel of cancer cell lines with known expression of MX35 antigen was included. Strong expression of SLC34A2 mRNA correlated with MX35 antigen cell surface expression in all cells analyzed (Table 1). No such correlation was found for the Zinc-finger protein 638 (data not shown).

- binding result [1]: no binding
- binding result [2]: binds
- binding result [3]: binds
- binding result [4]: binds
- binding result [5]: binds
- binding result [6]: binds
- binding result [7]: binds
- binding result [8]: binds
- binding result [9]: binds
- binding result [10]: binds
- binding result [11]: binds
- binding result [12]: binds
B1: Murine mAb MX35 (IgG1) (antibody, V domains shown)
VH: QVQLKQSGAELVKPGASVKMSCKASGYTFTGYNIHWVKQTPGQGLEWIGAIYPGNGDTSYKQKFRGKASLTADTSSSTVYMQLSSLTSEDSAVYYCARGETARATFAYWGQGTLVTVSA
VL: DIQMTQTTSSLPASLGDRVTISCSASQDIGNFLNWYQQKPDGTVKVLIYYTSSLYSGVPSRFSGSGSGTDYSLTISNLEPEDIATYYCQQYSKLPLTFGAGTKLELKR
notes: also called MX35 MAb; monoclonal antibody MX35

Source: patent US20140193417A1 (LUDWIG INSTITUTE FOR CANCER RESEARCH, published 2014)
